This is an account of results in paper PMC2647316 (Nucleic Acids Research, 2008).

Holding throughout (test): SPR
(Surface plasmon resonance follows binding to a sensor surface in real time, without labels.)

The target of one data set is T1, GkDnaC R120A (Geobacillus kaustophilus HTA426, UniProt Q5KU75 1-454, R120A).
T1 sequence: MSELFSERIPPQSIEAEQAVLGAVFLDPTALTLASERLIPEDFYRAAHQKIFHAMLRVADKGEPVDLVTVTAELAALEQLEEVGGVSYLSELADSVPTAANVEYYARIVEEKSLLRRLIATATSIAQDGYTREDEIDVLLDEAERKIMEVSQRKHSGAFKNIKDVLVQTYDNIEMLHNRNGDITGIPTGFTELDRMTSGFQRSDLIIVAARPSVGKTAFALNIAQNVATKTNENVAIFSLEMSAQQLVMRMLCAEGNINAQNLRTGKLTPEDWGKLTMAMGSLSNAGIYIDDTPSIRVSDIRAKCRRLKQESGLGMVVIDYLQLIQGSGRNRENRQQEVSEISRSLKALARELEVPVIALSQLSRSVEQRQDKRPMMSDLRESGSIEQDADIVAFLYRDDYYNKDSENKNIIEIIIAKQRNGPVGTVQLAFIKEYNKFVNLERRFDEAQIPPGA

The target of data set [1] is T2, GkDnaC replicative helicase WT (Geobacillus kaustophilus HTA426, UniProt Q5KU75 1-454).
T2 sequence: T1 sequence with A120R

For another data set, the target named is T3, GkDnaC R332A (Geobacillus kaustophilus HTA426, UniProt Q5KU75 1-454, R332A).
T3 sequence: T1 sequence with A120R, R332A

Another data set deals with T4, GkDnaC R344A (Geobacillus kaustophilus HTA426, UniProt Q5KU75 1-454, R344A).
T4 sequence: T1 sequence with A120R, R344A

Positions count from the first letter of the chain named.

Usually Kd stands for the constant that tells how readily two partners part at equilibrium. Turning to TTTTTTTTTTTTTTTTTTTTTTTTTTTTTT (ssDNA) [5'Bio-(dT)30], the equilibrium dissociation constant (Kd) came to 1.73 µM with GkDnaC R120A, 0.0469 µM in data set [1], 6.64 µM with GkDnaC R332A and 17.9 µM with GkDnaC R344A.
